Molecular target: delta-plasminogen
Sequence (chain, as listed by the source mutant): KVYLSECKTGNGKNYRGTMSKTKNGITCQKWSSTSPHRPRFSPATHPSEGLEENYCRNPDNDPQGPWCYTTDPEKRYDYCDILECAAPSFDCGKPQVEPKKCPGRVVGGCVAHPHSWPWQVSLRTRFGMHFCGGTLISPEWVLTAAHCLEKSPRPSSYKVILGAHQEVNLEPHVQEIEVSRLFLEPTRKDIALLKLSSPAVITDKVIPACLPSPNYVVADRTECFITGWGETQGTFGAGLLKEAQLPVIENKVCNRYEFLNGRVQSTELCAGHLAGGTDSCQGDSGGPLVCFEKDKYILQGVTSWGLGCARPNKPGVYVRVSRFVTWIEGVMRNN

B1: tissue Plasminogen Activator (protein)
chain: SYQVICRDEKTQMIYQQHQSWLRPVLRSNRVEYCWCNSGRAQCHSVPVKSCSEPRCFNGGTCQQALYFSDFVCQCPEGFAGKCCEIDTRATCYEDQGISYRGTWSTAESGAECTNWNSSALAQKPYSGRRPDAIRLGLGNHNYCRNPDRDSKPWCYVFKAGKYSSEFCSTPACSEGNSDCYFGNGSAYRGTHSLTESGASCLPWNSMILIGKVYTAQNPSAQALGLGKHNYCRNPDGDAKPWCHVLKNRRLTWEYCDVPSCSTCGLRQYSQPQFRIKGGLFADIASHPWQAAIFAKHRRSPGERFLCGGILISSCWILSAAHCFQERFPPHHLTVILGRTYRVVPGEEEQKFEVEKYIVHKEFDDDTYDNDIALLQLKSDSSRCAQESSVVRTVCLPPADLQLPDWTECELSGYGKHEALSPFYSERLKEAHVRLYPSSRCTSQHLLNRTVTDNMLCAGDTRSGGPQANLHDACQGDSGGPLVCLNDGRMTLVGIISWGLGCGQKDVPGVYTKVTNYLDWIRDNMRP
- conversion of one-chain delta-plasminogen into two-chain delta-plasmin (reduced SDS-PAGE): delta-plasminogen indeed can be activated by all three plasminogen activators
